Test results as given in patent US20150376238A1 (University of Washington, published 2015).

Columns and labels:
[1] = target: H1 hemagglutinin (A/South Carolina/1/1918) (Influenza A virus A/South …, UniProt Q9WFX3 18-520); test: yeast surface display titration
[2] = target: H3 hemagglutinin (A/Hong Kong/1/1968) (Influenza A virus A/Hong Kong/1/1968 …, UniProt Q91MA7 27-521); test: yeast surface display titration
Chain of H3 hemagglutinin (A/Hong Kong/1/1968) (Q91MA7 27-521 limits assumed): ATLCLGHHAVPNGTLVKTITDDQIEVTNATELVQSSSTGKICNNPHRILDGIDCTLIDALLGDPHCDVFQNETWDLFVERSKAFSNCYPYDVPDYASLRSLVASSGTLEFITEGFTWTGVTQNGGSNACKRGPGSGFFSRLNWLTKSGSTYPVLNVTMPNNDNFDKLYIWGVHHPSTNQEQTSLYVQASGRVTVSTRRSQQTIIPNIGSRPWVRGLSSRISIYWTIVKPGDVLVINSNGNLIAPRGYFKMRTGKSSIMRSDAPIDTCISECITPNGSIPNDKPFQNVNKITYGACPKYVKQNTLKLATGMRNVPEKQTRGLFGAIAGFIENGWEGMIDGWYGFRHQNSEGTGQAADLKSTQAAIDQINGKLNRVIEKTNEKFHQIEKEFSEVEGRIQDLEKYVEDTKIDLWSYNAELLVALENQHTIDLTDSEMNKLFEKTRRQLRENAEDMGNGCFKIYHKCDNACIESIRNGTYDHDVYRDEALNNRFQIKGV

Chain of H1 hemagglutinin (A/South Carolina/1/1918) (Q9WFX3 18-520 limits assumed): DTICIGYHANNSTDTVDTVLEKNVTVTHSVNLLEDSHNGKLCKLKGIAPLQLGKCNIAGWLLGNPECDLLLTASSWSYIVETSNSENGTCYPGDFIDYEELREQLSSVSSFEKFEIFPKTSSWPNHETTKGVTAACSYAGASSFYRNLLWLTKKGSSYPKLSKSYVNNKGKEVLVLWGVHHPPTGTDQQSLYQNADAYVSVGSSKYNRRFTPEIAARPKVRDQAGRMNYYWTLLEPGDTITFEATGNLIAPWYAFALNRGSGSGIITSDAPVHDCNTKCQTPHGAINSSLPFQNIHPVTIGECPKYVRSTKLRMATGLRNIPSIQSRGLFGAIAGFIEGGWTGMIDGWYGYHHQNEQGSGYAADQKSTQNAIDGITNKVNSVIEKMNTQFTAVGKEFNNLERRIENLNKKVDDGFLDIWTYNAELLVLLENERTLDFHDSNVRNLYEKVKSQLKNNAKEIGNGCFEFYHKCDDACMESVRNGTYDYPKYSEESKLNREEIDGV

B1: 52alt1-3 (designed binder)
chain: GIVNVPNPNTTKYQQLARSAIAIYNNHQNAHLEFVENLNVKEQVSYGAMYYITLAATDDAGKKKIYKAKVGVVESAGWVGVEEFKLV
For B1, the binding result [1] was “no binding” and the Kd [2] was 3 nM.
